These results are taken from article PMC6891087 (2019).

Broadly, the Kd is a measure of binding affinity in units of concentration. A low value points to a tighter complex.

This assay addresses unmodified nucleosome core particle (human | Xenopus laevis, UniProt P04908 1-130; P06899 1-126). Nature of the assay: SPR. On the technique in general: In SPR one partner is held on a chip, and binding of the other changes the refractive index at the surface.

B1: CPC_LM containing the Survivin BIR mutant K62/E65/H80A (complex)
chain 1: MAPRKGSSRVAKTNSLRRRKLASFLKDFDREVEIRIKQIESDRQNLLKEVDNLYNIEILRLPKALREMNWLDYFALGGNKQALEEAATADLDITEINKLTAEAIQTPLKSAKTRKVIQVDEMIVEEEEEEENERKNLQTARVKRCPPSKKRTQSIQGKGKGKRSSRANTVTPAVGRLEVSMVKPTPGLTPRFDSRVFKTPGLRTPAAGERIYNISGNGSPLADSKEIFLTVPVGGGESLRLLASDLQRHSIAQLDPEALGNIKKLSNRLAQICSSIRTHK
chain 2: MGAPTLPPAWQPFLKDHRISTFKNWPFLEGCACTPERMAEAGFIHCPTENEPDLAQCFFCFAELAGWEPDDDPIEEHKKASSGCAFLSVKKQFEELTLGEFLKLDRERAKNKIAKETNNKKKEFEETAKKVRRAIEQLAAMD
chain 3: MGTTAPGPIHLLELCDQKLMEFLCNMDNKDLVWLEEIQEEAERMFTREFSKEPELMPK
B1 displayed a Kd of 309 nM. This lies in the sub-micromolar range.
